Data published in patent US9944700B2, “Notch2 binding molecules for treating respiratory diseases” (NOVARTIS AG, priority 2013, dated 2018).

Tested on: bronchospheres (human bronchial epithelial cells)
Experiment: Bronchosphere assay of secreted recombinant human proteins, qPCR of cell type markers and immunostaining
Assay type: cell-based
Conditions: for change in expression of at least one cell-type marker, initial screen: 55 proteins tested at 3.3, 10 and 30 ng/mL; for expression of both of the ciliated cell markers: markers FOXJ1, DNAI2; for expression of at least two of the goblet cell markers: markers MUC5AC, MUC5B, FOXA3; for change in expression of at least one of the cell-type markers, on validation: expanded concentration range
Description: Human bronchial epithelial (HBE) cells and culture media were obtained from Lonza. Air-liquid interface cultures using passage 2 (P2) cells were performed as previously described (Danahay, H. et al., American journal of physiology. Lung cellular and molecular physiology 282, L226-236 (2002)). For three-dimensional culturing of HBE cells, P1 cells were trypsinized and resuspended (30,000 cells/ml) in HBE differentiation media containing 5% growth factor-reduced Matrigel (BD Biosciences). 20 μl of suspension was plated in each well of a 384-well plate (Greiner) pre-coated with 10 μl of a 25% solution of Matrigel (BD Biosciences) in HBE differentiation media. Wells were fed or treated at day 2 and day 8 of culture by adding 30 μl of differentiation media containing the appropriate treatment. Three-dimensional cultures were analyzed at the time points indicated.
Immunofluorescence of HBEC bronchospheres was performed as described previously for MCF10A cysts (Debnath, J. et al., Methods 30, 256-268 (2003) with the following modifications. After incubation with fluorescence-conjugated secondary antibodies, DNA was stained with a 1:1 mix of PBS and ProLong gold antifade containing DAPI. Confocal microscopy was performed at room temperature on a microscope (Zeiss LSM510 Meta) using an EC Plan-Neofluar 10×/0.30 dry objective (Zeiss), an EC Plan-Neofluor 20×/0.5 dry objective (Zeiss), a C-Apochromat 40×/1.2 W corr (Zeiss), or a C-Apochromat 63×/1.2 W Corr objective (Zeiss). Images were collected with Zen confocal software (Zeiss). Scale bars were added, and images were processed using Zen (Zeiss) and Photoshop (Adobe). Air-liquid interface (ALI) cultures were processed for immunofluorescence analysis after 14 days of culture at ALI by rinsing the apical surface of each filter with PBS, and then fixing in 4% paraformaldehyde for 4 hours. Filters were washed with IF buffer (130 mM NaCl, 7 mM Na2HPO4, 3.5 mM NaH2PO4, 7.7 mM NaN3, 0.1% bovine serum albumin, 0.2% Triton X-100, 0.05% Tween-20), blocked with IF wash containing 10% goat serum, and stained with primary antibody in IF wash containing 10% goat serum overnight at 4° C. Secondary antibodies were used at a 1:200 dilution in IF buffer containing 10% goat serum. To quantify the total staining area of ALI cultures, 10×13 images were collected with a plan Neofluar 10×0.3 NA Ph1 objective (EC; Carl Zeiss, Inc.) on a microscope (Axiovert 200; Carl Zeiss, Inc.) equipped with a motorized stage and a camera (Orca-ER-1394; Hamamatsu Photonics) controlled by Axiovision software (Carl Zeiss, Inc.) and used to generate a single composite image using the MOSAIX function in Zeiss Axiovision. Quantification of the total staining area was performed with ImageJ. Two to three regions of each ALI culture were punched out with a 4 mm biopsy punch (Miltex, Inc.) and mounted in ProLong gold antifade containing DAPI for imaging by confocal microscopy on a microscope (Axiovert 200; Carl Zeiss, Inc.) equipped with a motorized stage, a Yokogawa CSU-X1 spinning disc head, and an EMCCD camera (Evolve 512, Photometrics), with a Plan-Apochromat 100×/1.4 Oil DIC objective (Zeiss). Cells positive for MUC5AC, MUC5B, or cilia (acetylated α-Tubulin) staining were counted manually. For time-lapse video microscopy, HBECs were imaged at the indicated times during bronchosphere development at 37° C. with a plan Neofluar 10×0.3 NA Ph1 objective (EC; Carl Zeiss, Inc.). Images were taken every 5 min for the indicated time period. Annotations (time stamp and scale bar) were added and videos were assembled using Axiovision software.
RNA was isolated from 3D bronchosphere cultures with Trizol (Invitrogen), using manufacturer's specifications. To isolate RNA from mouse tissue, approximately 20 mg of tissue was placed in a 1.5 ml eppendorf tube with 1 ml of Buffer RLT Plus (Qiagen). A 5 mm stainless steel bead (Qiagen) was added to the tube, and the tissue was sheared using a Tissue Lyser II (Qiagen).

[1] = IL-13 treated bronchospheres, immunostaining, FIG. 2c
[2] = IL-13 treatment between days 2 and 14 after seeding, qPCR, FIG. 2a

| Molecule | change in expression of at least one cell-type marker, initial screen | expression of both of the ciliated cell markers | expression of at least two of the goblet cell markers | change in expression of at least one of the cell-type markers, on validation | acetylated α-tubulin positive structures [1] | secreted mucins in the central lumen [1] | ciliated cell marker expression [2] | expression of markers of goblet cells [2] | concentrations toxic and disrupting bronchosphere formation (data not shown) | expression of MUC5B (bronchosphere assay) | effect on any of the other markers (markers other than MUC5B) |
| --- | --- | --- | --- | --- | --- | --- | --- | --- | --- | --- | --- |
| IFN-γ: secreted, recombinant human protein profiled in the bronchosphere assay | concentration-dependent change | attenuated | enhanced | robust change | – | – | – | – | – | – | – |
| IL-13: secreted, recombinant human protein (inflammatory cytokine) profiled in the bronchosphere assay | concentration-dependent change | attenuated | enhanced | robust change | lack | accumulation | declined | clear enhancement | > 3 ng/mL | – | – |
| IL1-β: secreted, recombinant human protein profiled in the bronchosphere assay | concentration-dependent change | attenuated | enhanced | robust change | – | – | – | – | – | – | – |
| FGF-7: secreted, recombinant human protein profiled in the bronchosphere assay (protein, UniProt P21781 32-194, looked up) Fibroblast growth factor 7: CNDMTPEQMATNVNCSSPERHTRSYDYMEGGDIRVRRLFCRTQWYLRIDKRGKVKGTQEMKNNYNIMEIRTVAVGIVAIKGVESEFYLAMNKEGKLYAKKECNEDCNFKELILENHYNTYASAKWTHNGGEMFVALNQKGIPVRGKKTKKEQKTAHFLPMAIT | concentration-dependent change | – | – | – | – | – | – | – | – | enhanced | without affecting |
| IL-29: secreted, recombinant human protein profiled in the bronchosphere assay (protein, UniProt Q8IU54 20-200, looked up) Interferon lambda-1: GPVPTSKPTTTGKGCHIGRFKSLSPQELASFKKARDALEESLKLKNWSCSSPVFPGNWDLRLLQVRERPVALEAELALTLKVLEAAAGPALEDVLDQPLHTLHHILSQLQACIQPQPTAGPRPRGRLHHWLHRLQEAPKKESAGCLEASVTFNLFRLLTRDLKYVADGNLCLRTSTHPEST | concentration-dependent change | attenuated | enhanced | robust change | – | – | – | – | – | – | – |
| IL-28A: secreted, recombinant human protein profiled in the bronchosphere assay (protein, UniProt Q8IZJ0 26-200, looked up) Interferon lambda-2: VPVARLHGALPDARGCHIAQFKSLSPQELQAFKRAKDALEESLLLKDCRCHSRLFPRTWDLRQLQVRERPMALEAELALTLKVLEATADTDPALVDVLDQPLHTLHHILSQFRACIQPQPTAGPRTRGRLHHWLYRLQEAPKKESPGCLEASVTFNLFRLLTRDLNCVASGDLCV | concentration-dependent change | attenuated | enhanced | robust change | – | – | – | – | – | – | – |
| IL-28B: secreted, recombinant human protein profiled in the bronchosphere assay (protein, UniProt Q8IZI9 22-196, looked up) Interferon lambda-3: VPVARLRGALPDARGCHIAQFKSLSPQELQAFKRAKDALEESLLLKDCKCRSRLFPRTWDLRQLQVRERPVALEAELALTLKVLEATADTDPALGDVLDQPLHTLHHILSQLRACIQPQPTAGPRTRGRLHHWLHRLQEAPKKESPGCLEASVTFNLFRLLTRDLNCVASGDLCV | concentration-dependent change | attenuated | enhanced | robust change | – | – | – | – | – | – | – |
| IL-1a: secreted, recombinant human protein profiled in the bronchosphere assay (protein, UniProt P01583 113-271, looked up) Interleukin-1 alpha: SAPFSFLSNVKYNFMRIIKYEFILNDALNQSIIRANDQYLTAAALHNLDEAVKFDMGAYKSSKDDAKITVILRISKTQLYVTAQDEDQPVLLKEMPEIPKTITGSETNLLFFWETHGTKNYFTSVAHPNLFIATKQDYWVCLAGGPPSITDFQILENQA | concentration-dependent change | attenuated | enhanced | robust change | – | – | – | – | – | – | – |
